From patent publication US20240383984A1 (Genentech, published 2024)
Where a chain is given by its changes, count along the chain named. Values belong to the binder of their own block, whether it stands above or below them.

How the values were obtained:
[1] = target: T1, cynomolgus FcRH5 protein fragment (soluble) (cynomolgus monkey); assay: SPR, hIgG capture, 1:1 model
T1 construct: whole entry named; also called Cyno FcRH5 (BIACORE analyte)
T1 chain: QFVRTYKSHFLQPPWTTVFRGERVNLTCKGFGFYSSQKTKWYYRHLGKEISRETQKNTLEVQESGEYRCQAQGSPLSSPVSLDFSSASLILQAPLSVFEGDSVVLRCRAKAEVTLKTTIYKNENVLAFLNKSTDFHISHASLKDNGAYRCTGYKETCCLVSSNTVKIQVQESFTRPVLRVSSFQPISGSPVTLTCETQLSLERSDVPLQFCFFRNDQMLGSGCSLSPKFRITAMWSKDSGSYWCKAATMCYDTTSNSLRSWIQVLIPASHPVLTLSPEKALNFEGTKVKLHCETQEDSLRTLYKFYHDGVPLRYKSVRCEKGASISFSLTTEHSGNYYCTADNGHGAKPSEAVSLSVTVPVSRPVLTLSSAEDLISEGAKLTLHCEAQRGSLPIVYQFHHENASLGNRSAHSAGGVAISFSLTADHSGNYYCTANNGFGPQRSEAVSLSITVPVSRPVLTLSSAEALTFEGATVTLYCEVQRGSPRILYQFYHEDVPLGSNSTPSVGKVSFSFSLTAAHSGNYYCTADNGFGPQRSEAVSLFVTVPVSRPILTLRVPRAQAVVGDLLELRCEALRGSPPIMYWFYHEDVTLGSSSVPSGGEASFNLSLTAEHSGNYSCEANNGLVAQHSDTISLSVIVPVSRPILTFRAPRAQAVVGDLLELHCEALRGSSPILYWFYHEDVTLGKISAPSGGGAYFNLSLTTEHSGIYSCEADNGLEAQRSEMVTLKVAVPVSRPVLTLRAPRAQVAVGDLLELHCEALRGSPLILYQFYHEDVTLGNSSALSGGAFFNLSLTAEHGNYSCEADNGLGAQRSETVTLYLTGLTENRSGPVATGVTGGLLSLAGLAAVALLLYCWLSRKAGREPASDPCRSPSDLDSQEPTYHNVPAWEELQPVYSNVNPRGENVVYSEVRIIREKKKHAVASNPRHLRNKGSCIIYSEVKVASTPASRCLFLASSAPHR
Description: (§1) Briefly, a human IgG capture surface was generated on a Series S CM5 chip using amine coupling and the human IgG capture kit (GE Life Sciences, Piscataway, NJ). Test antibodies were then captured on flow cells 2, 3, or 4, with flow cell 1 used as a reference. An FcRH5 protein fragment was used as the analyte, with a flow rate of […]. Between injections the capture surface was regenerated by a 30-second injection of 3M magnesium chloride or 10 mM glycine, pH 1.5. Interactions were assessed at 25° C. in 10 mM HEPES pH7.4, 150 mM NaCl, and 0.05% Tween 20 (HBSP). Reference data from the reference flow cell and from injection of buffer alone were subtracted prior to kinetic analysis. Kinetic information was calculated by fitting data to a 1:1 binding model. Reference subtraction and data fitting were performed using BIAevaluation software (GE Life Sciences, Piscataway, NJ).
(§2) Kinetic characterization experiments were carried out (see Table 8). In these experiments, binding of soluble FcRH5 protein fragment to purified antibodies in human TDB antibody format was analyzed at six different non-zero concentrations (a 1:3 dilution series, one concentration injected twice as a replicate). Flow rate was set at 40 μl/min and association and dissociation monitored for 600 s.

[2] = target: T2, human FcRH5 protein fragment (soluble) (human, UniProt Q96RD9 16-851); assay: SPR, hIgG capture, 1:1 model
T2 construct: whole entry named; also called soluble human FcRH5; Human FcRH5 (BIACORE analyte)
T2 sequence: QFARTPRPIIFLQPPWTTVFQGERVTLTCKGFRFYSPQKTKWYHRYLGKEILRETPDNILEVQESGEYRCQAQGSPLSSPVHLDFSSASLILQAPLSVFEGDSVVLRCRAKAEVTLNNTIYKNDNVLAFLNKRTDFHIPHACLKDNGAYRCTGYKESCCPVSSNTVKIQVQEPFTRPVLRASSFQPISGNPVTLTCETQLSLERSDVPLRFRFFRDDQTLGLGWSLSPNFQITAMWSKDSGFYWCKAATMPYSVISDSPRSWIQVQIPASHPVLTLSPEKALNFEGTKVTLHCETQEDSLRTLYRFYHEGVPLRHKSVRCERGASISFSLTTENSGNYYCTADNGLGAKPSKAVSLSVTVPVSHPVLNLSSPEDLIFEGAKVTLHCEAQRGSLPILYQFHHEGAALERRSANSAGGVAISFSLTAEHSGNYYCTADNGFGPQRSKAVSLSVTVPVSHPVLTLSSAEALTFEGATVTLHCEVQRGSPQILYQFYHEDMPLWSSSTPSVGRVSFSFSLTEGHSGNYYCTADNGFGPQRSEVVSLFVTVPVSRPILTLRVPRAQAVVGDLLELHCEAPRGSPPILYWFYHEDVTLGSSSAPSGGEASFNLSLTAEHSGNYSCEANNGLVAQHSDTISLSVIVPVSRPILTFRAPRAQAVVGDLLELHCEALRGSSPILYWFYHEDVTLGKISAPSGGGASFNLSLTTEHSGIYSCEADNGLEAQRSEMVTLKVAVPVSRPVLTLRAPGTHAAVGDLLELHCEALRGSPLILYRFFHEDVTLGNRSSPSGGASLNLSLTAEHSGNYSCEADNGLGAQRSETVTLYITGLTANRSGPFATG
Description: as §1, §2

[3] = target: T2, human FcRH5 protein fragment (soluble); assay: SPR (BIACORE), TDB captured as ligand, Hu FcRH5 as analyte, 25 °C, 1:1 binding model
[4] = target: T1, cynomolgus FcRH5 protein fragment …; assay: BIACORE
[5] = target: T2, human FcRH5 protein fragment (soluble); assay: BIACORE

Kd [1]: 6.3 nM | koff [1]: 0.0008 s⁻¹ | kon [1]: 100000 M⁻¹ s⁻¹ | Kd [2]: 2.4 nM | koff [2]: 0.001 s⁻¹ | kon [2]: 500000 M⁻¹ s⁻¹
B1: hu1G7.v1.4/38E4.v1 TDB (bispecific antibody, V domains shown)
VH 1: EVQLVESGPGLVKPSETLSLTCTVSGFSLTRFGVHWVRQPPGKGLEWLGVIWRGGSTDYNAAFMSRLTISKDNSKNQVSLKLSSVTAADTAVYYCSNHYYGSSDYALDNWGQGTLVTVSS
VL 1: DIQMTQSPSSLSASVGDRVTITCKASQDVRNLVVWFQQKPGKAPKLLIYSGSYRYSGVPSRFSGSGSGTDFTLTISSLQPEDFATYYCQQHYSPPYTFGQGTKVEIK
VH 2: EVQLVQSGAEVKKPGASVKVSCKASGFTFTSYYIHWVRQAPGQGLEWIGWIYPENDNTKYNEKFKDRVTITADTSTSTAYLELSSLRSEDTAVYYCARDGYSRYYFDYWGQGTLVTVSS
VL 2: DIVMTQSPDSLAVSLGERATINCKSSQSLLNSRTRKNYLAWYQQKPGQSPKLLIYWTSTRKSGVPDRFSGSGSGTDFTLTISSLQAEDVAVYYCKQSFILRTFGQGTKVEIK
notes: knob-into-hole TDB; also called 1G7.v1.4 TDB; 1G7.v1.4 (TDB format)

Kd [3]: 2.35 nM | koff [3]: 0.00104 s⁻¹ | kon [3]: 441000 M⁻¹ s⁻¹ | Kd [1]: 6.8 nM | koff [1]: 0.0008 s⁻¹ | kon [1]: 100000 M⁻¹ s⁻¹ | Kd [2]: 2.4 nM | koff [2]: 0.001 s⁻¹ | kon [2]: 400000 M⁻¹ s⁻¹ | Kd [4]: 7.8 nM | Kd [5]: 2.1 nM
B2: 1G7.v85/38E4.v1 TDB (bispecific antibody, V domains shown)
VH 1: B1 VH 1 with M64V
VL 1: B1 VL 1
VH 2: B1 VH 2
VL 2: B1 VL 2
notes: knob-into-hole TDB; also called 1G7.v85 TDB; 1G7.v85 (TDB format)
